Measured values taken from PMC11889601, “The structural integrity of human TFF1 under reducing conditions” (Redox Biology, 2025).
Ends that are not written are not given here.

B1: TFF2: trefoil factor family secretory peptide 2 (protein, UniProt Q03403 24-129, looked up)
Trefoil factor 2: EKPSPCQCSRLSPHNRTNCGFPGITSDQCFDNGCCFDSSVTGVPWCFHPLPKQESDQCVMEVSDRRNCGYPGISPEECASRKCCFSNFIFEVPWCFFPKSVEDCHY

Assays:
[1] = Reductive stability of disulfide bonds: TCEP reduction, IAM alkylation, LC-MS; assay type: physicochemical; conditions: chemical stability to reduction, 30 min, room temperature (25 °C), then IAM 100 eq/Cys 5 min, TFA quench; for Reduction and alkylation of disulfide bonds with 5 equivalents of TCEP: peptide 150 μM in 100 mM tris.HCl pH 7.4, 5 molar equivalents TCEP per peptide; for Reduction and alkylation of disulfide bonds with 15 equivalents of TCEP: peptide 150 μM in 100 mM tris.HCl pH 7.4, 15 molar equivalents TCEP per peptide; for Reduction and alkylation of disulfide bonds with 150 equivalents of TCEP: peptide 150 μM in 100 mM tris.HCl pH 7.4, 150 molar equivalents TCEP per peptide
Protocol: Peptides were purified by preparative RP-HPLC using a C5 column (Phenomenex Luna; 10 μm, 21.2 mm ID × 250 mm; flow rate 20 mL/min) on a Shimadzu LC-20A system running a linear gradient of solvents A (0.1 % TFA (aq) and B (90 % acetonitrile (aq)/0.1 % TFA). Fractions were analyzed by liquid chromatography-mass spectrometry (LC-MS), and those containing the desired peptide and >95 % purity were pooled and lyophilized. LC-MS analyses were performed on a C18 column (Agilent Eclipse Plus; […], 2.1 mm ID x 50 mm; flow rate 0.25 mL/min), using a QSTAR Elite electrospray ionization quadrupole time-of-flight (ESI QqTOF) mass spectrometer (SCIEX) linked to an upstream Shimadzu LC-20A HPLC system. HPLC solvents were the same as described previously, substituting formic acid for TFA. Peptides were separated on a gradient of 2–60 % B over 10 min and analyzed over a mass range of 200–2000 amu.
Peptides (TFF1, linaclotide, or BPTI) were dissolved to a concentration of 150 μM in 100 mM tris.HCl, pH 7.4. TCEP and IAM were prepared as separate 0.5 M solutions in 100 mM tris.HCl and the pH of all solutions were adjusted with concentrated KOH to pH 7.4. 25 μL of peptide (3.75 nmol) were treated with 0.5 M TCEP (0–150 molar equivalents per peptide). The samples were incubated at room temperature (25 °C) for 30 min, whereby they were treated with 5 μL (2.5 μmol; 100 eq/Cys) IAM for 5 min, followed by quenching with 5 μL TFA to reduce the pH to 2–3. Samples were then analyzed by LC-MS.

[2] = monomer and homodimer TFF3 domains; reduced glutathione 10 equivalents, 100 μM, pH 7; ref [22]; cited from earlier work
Description: (§1) Many secretory proteins contain disulfide bonds, with most formed during folding in the endoplasmic reticulum. The trefoil factor family (TFF) is a highly relevant example of such secretory peptides in humans, with three characteristic peptides (TFF1, TFF2, TFF3) produced by mucous epithelia. They are most abundantly secreted throughout different compartments of the gastrointestinal tract, where they have important functions in protecting the epithelium barrier and maintaining mucosal epithelial homeostasis. Each member of the family has at least one highly conserved TF ...

[3] = test system: gastrointestinal proteases; conditions: ref [17]-[21]; cited from earlier work
Description: as §1

Row | Molecule | Reduction and alkylation of disulfide bonds with 5 equivalents of TCEP [1] | Reduction and alkylation of disulfide bonds with 15 equivalents of TCEP [1] | Reduction and alkylation of disulfide bonds with 150 equivalents of TCEP [1] | Persistence of disulfide bonds in the presence of reduced glutathione [2] | Resistance of the TFF domain to gastrointestinal proteases [3]
1 | bovine pancreatic trypsin inhibitor [BPTI] | complete reduction and alkylation of a single disulfide bond | no further reduction | No further reduction |  | 
2 | linaclotide | partial reduction and alkylation of a single disulfide bond | fully reduced and alkylated | fully reduced and alkylated |  | 
3 | TFF3: trefoil factor family secretory peptide 3, with TFF domain (EEYVGLSANQCAVPAKDRVDCGYPHVTPKECNNRGCCFDSRIPGVPWCFKPLQEAECTF; ends and bridges not checked; also: three intramolecular disulfides in TFF domain, pairing not given here; UniProt Q07654 22-80, looked up) |  |  |  | no disulfide bond reduction or scrambling detected | resistance
4 | B1 |  |  |  |  | resistance
